Measured values reported in the nanobody polyreactivity screen of Harvey et al. (2022).

Test: yeast display, Sf9 membrane polyspecificity reagent, FACS + sequencing; frameworks hold sequencing errors
Outline: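 A nanobody's polyreactivity label depends on the gate it was sorted from. Yeast display cells were stained with 10% biotinylated, detergent-solubilized Sf9 membrane reagent for 1 hour at 4 °C, enriched on streptavidin microbeads and sorted by FACS. The low and high (top ~1%) gates were set on anti-HA fluorescence for expression and streptavidin fluorescence for reagent binding.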

| Sequence | polyreactivity (PSR sort gate) |
| --- | --- |
| QVQLVESGGGLVHAGGSLRLSCAASGSIFGIYTMGWYRQAPGKERELVARINLSGGITYYADSVKGRFKISRDNAKNTVYLQMNSLKPEDTAVYYCNARTVNFPYDYWGQGTQVTVSS | low polyreactivity |
| QVQLVESGGGLVHAGGSLRLSCAASGSIFGVNARGWYRPAPGKERELVAAISSTGSRTYYADSVQGRFTISRDNAKNTVYLQRNSLKPEETAVYYCAAYLTRYGAYYWGQGTQVTVSS | high polyreactivity |
| QVQLVESGGGLVHAGGSLRLSCAASGSIFGWYVMGWYRQAPGKERELVAAISSVGSTYYADSVKGRFTISRDNAKNTVCLQMNSLKPEDTAVYYCAKLRYPYLFWDDSEYWGQGTQVTVSS | low polyreactivity |
| QVQLVESGGGLVHAGGSLRLSCAASGSIFHFNAMGWYRQAPGKERELVARISIGGGSTYYADSVKGRFTISRDNAKNTVYFQMNSLKPEDTAVYSCAVDGSPRNKYDYWGQGTQVTVSS | high polyreactivity |
| QVQLVESGGGLVHAGGSLRLSCAASGSTFFPYDMGWYRPEPGTERYFVAGISSDGGTSYADSVKGRFTISRDNAKNTVYLQMNSMKPEDTAVYDCAALQADGDRYPEFDLMDYWGQGSQVTVSS | low polyreactivity |
| QVQLVESGGGLVHAGGSLRLSCAASGSTFSRYAMGWYRQAPWKERELVAAISWSGASTYYADSVKWRFTISRDNAKNTVYLQMNSLKPEDTSVYYCAKVARQNWFRYNYDYWGQGTQVTVSS | high polyreactivity |
| QVQLVESGGGLVHAGGSLRLSCAASGSTFVRNAMGWYRQAPGKERELVAAITSRGGSTYYADSVKGRFTISRDNAKNTVYLQMNSLKPEDTAVYYCAARFGVKRGQYDYWGQGTQVTVSS | high polyreactivity |
| QVQLVESGGGLVHAGGSLRLSCAASGTIFYRNAMGWYRQAPGKERELVAAITSRGGRTYYADSVKGRFTISRDNAKNTVYLQMNSLKPEDTAVYDCNKRYVYSTSDYDYWGQGTQVTVSS | high polyreactivity |
| QVQLVESGGGLVHAGGSLRLSCAASGYIFTRNMGWYRQAPGKERELVAAITWSGGSTYYADSVKGRFTISRDNAKNTVYLQINSLKPEDTAVYYCAADYGWSVGRRYYYWGQGTQVTVSS | high polyreactivity |
| QVQLVESGGGLVHAGGSLRLSCAASGYIIGYYTMGWYRQAPGKERELVATIRSGGSTYYADSVKGRFTISRDNANNSVYLQINSLKPEDTAVYYCAKRVRRISEYGYWGQGTHVTVSS | high polyreactivity |
| QVQLVESGGGLVHAGGSLRLSCAASGYTFGNNAMGWYIQAPGKERELVASIRTNGGTTYYADSVKGRFTISRDNAKNTVYLQMNSLKPEDTAVYYCNAYRGYEYDYWGQGTQVTVSS | low polyreactivity |
| QVQLVESGGGLVHAGGSLRLSCAASVSTFLFYAMGWYRQAPGKEREFVAAITWSGGSTYYADSVKGRFTISRDNAKNTVYLQMNSLKPEDTAVYYCNGYYVPTTGREFYFAFYYWGQGTQVTVSS | low polyreactivity |
| QVQLVESGGGLVHAGGSLRLSCAAYGRTFKYNAMGWNRQAPGKERELVAAISSRGGSTYYADSVKGRFTISRDNAKNTVYLQMNSLKPEDTAVYYCAIATSSSEYGYDYWGQGTQVTVSS | high polyreactivity |
| QVQLVESGGGLVHAGGSLRLSCADSGFTFGAYAMGWYRQAPGKERELVATITNSGRTYYADSVKGRFTISRDNAKNTVYLQMNSLNPEDTAVYYCAAQPDGQAMEHWGQGTQVTVSS | low polyreactivity |
| QVQLVESGGGLVHAGGSLRLSCAPSAFTFAYYAMGWYRQAPGKEREFVAAITKGGGSTNYADSVKGRFTISRDNAKNTVYLQMYSLKPEDTAVYYSNADYFVWYIGRVFSRYGYWGQGTQVTVSS | low polyreactivity |
| QVQLVESGGGLVHAGGSLRLSCAPSGSIFGPYAMGWYIQAPGKERELVAAIRSGGSTNYADSVKGRFTISRDNAKNTVYLQMNSLKPDDTSVYYWAGEYWGYPYDYWGQGTQVTVSS | low polyreactivity |

| Sequence | polyreactivity (PSR sort gate) |
| --- | --- |
| QVQLVESGGGLVHAGGSLRLSCASSGSIFIRNAMGWYRQAPGKERELVASISRSGASTRYADSVKGLFTISRDNAKNTVYLQMNSLNPEDTAVYYCNDVIRRYFVPSSYDYWGQGTQVTVSS | high polyreactivity |
| QVQLVESGGGLVHAGGSLRLSCPADGSTFVLNAIGWYRQAPGKERQLVAGISYGTGSTYYADSVKGRFTISRDHAKNTVYLQMNSLKPEDTAVYYCATDFDGYSIGMYYWGQGNQVTVSS | low polyreactivity |
| QVQLVESGGGLVHAGGSLRLSCSASGYTFAYNAMGWYRQAPGKERELVAAITSRAGSTHYADSVKGRFTISRDNAKNTVYLQMNSLKPEDTAVYYCAAKRYNRLRSYRYSDREDYWGQGTQVSVSS | high polyreactivity |
| QVQLVESGGGLVHAGGSLRLSCSASRFIFDKNSMGWYIQAPGKERELVAAISYGDGRTYYADSVKGRFTISRDNAKNTVYLHMNSLKPEDTEVYYCNTDAKRYIRIYWGQGTQVTVSS | high polyreactivity |
| QVQLVESGGGLVHAGGSLSLSCAASGSTFKDYAMGWYRQAPGKERELVAAISKGATRTYYADSVKGRFTISRDNAKITVYLQINSLKPEDTAVYYCAADRLKFRGEYDYWGQGSQVTVSS | high polyreactivity |
| QVQLVESGGGLVHAGRSLLLSCAASGRTYRLDAMGWYRQSPGKERELVAAITRGGRTNYADSVKGRFTISRDNAKNTFYLQMNSLKPEDTAVYYCADRYVERPTDYYYWGQGTQVTVSS | low polyreactivity |
| QVQLVESGGGLVHAGVSLRLSCAASGIIFAHYAKGWYRQAPGKERELVAAISSSGATTYYADSVKGRFTISRDNAKNTVYLQMNSLKPEDTAVYYCNTETYHVRRLFDYWGQGTQVTVSS | low polyreactivity |
| QVQLVESGGGLVHGGGSLRLSCAASGSILHYNTMGWYRQAPGKEREFVASISYSGGSTYYADSVKGRFTISRDNAKNTVYLQMNSLKPEDTAVYYCATEGMDFWFIYYYWGQGTQVTVSS | low polyreactivity |
| QVQLVESGGGLVHPGGSLRLSCDASGLILDGYAMGWYRQAPGKERELVAAITRSGGRTYYADSVKGRFTISRDNAKNTVNLQKNRQKPVDTAVYHSAALGWSGRYRYDYWGQGTQVTVSS | high polyreactivity |
| QVQLVESGGGLVKAGGILSLSCAASGRTFAFYGMGSYRQAPGKERELVATIRGTGGSTYYADSVKGRFTISRDNAKNTVYLQMNSLKPEDTAVYYCAAVNRRYPRYDYWGLGTQVTVSS | high polyreactivity |
| QVQLVESGGGLVKAGGSLRLICAAYGRIFALYAMGWYRHAPGKERELVAAINNGASTNYADSVKWRFTISRDNAKNTVYVQMNSLKPEDTAVYYCAVRAARSGQRFYSWGQGTQVTVSS | high polyreactivity |
| QVQLVESGGGLVKAGGSLRLRCAASGITFRYNAMGWYRQAPGKERELVAAITSSGGRTYYADSVKGRFTISRDNAKNTVYLQMNSLKPEDTAVYYCAARTRYRKEYDYWGQGTQVTVSS | high polyreactivity |
| QVQLVESGGGLVKAGGSLRLSCAASGFTFAYYAMGWYRQAPGKERELVAAISGSGGSTYYADSVKGRFTISRDNAKNTVYLQMNSLKPEDTAVYYCAAARRSTWSYSYYWGQGTQVTVSS | high polyreactivity |
| QVQLVESGGGLVKAGGSLRLSCAASGFTFPQYAMGWYRQAPGKERELVAAISKRSVGTRYADSVKGRFTISRDNAKNTLYLQMNSLKPEDTAVYYCNKYGQVPGYFSLDYWGQGTQVTVSS | high polyreactivity |
| QVQLVESGGGLVKAGGSLRLSCAASGFTYSTYAMGWYRQAPGKEREFVAAISRSGGSTYYADSVKGRFTISRDNAKNTVYLQMNSLKPEDTAVYYCAVRPYRSAGGSVTRGAYYYWGQGTQVTVSS | high polyreactivity |
| QVQLVESGGGLVKAGGSLRLSCAASGITFYIYDMGWYRQAPGKERELVATISWSDGRTYYADSVKGRFTISRDNAKNTVYLQMNSLKPEDTAVYYCASDWWYYQFDYEYWGQGTQVTVSS | low polyreactivity |
